System: alpha-CTD (RNA polymerase alpha subunit C-terminal domain) (Bacillus licheniformis B1391)
Assay: fluorescence polarization
Conditions: FP: 25 mM Tris-HCl, 3 mM NaCl, 3 mM MgCl2, 0.1 mM DTT, room temp 20 min, 100 nM probe, 30 ug protein in 100 uL; EMSA: 10 nM probe, 25 C 20 min; footprinting: …

Substance	binding signal (% polarization change (DPC))
PtrxA-UP5-5D (five distal subsite repeats)	35
PtrxA-UP5-5P (five proximal subsite repeats)	52
